{
  "source": "patent US20200087383A1",
  "about": "(NATIONAL CHENG KUNG UNIVERSITY, published 2020)",
  "key": {"[1]": {"molecular_target": "T1, antigen comprising the amino acid sequence YKDWSEWGKAC (SEQ ID NO: 12)", "T1 construct": "Any carrier or conjugate is not described; also called screening antigen", "T1 peptide": "YKDWSEWGKAC", "assay": "ELISA of hybridoma supernatants on the antigen comprising SEQ ID NO: 12"}, "[2]": {"molecular_target": "bovine serum albumin (BSA) (bovine, UniProt P02769 25-607)", "sequence (P02769 25-607 limits assumed)": "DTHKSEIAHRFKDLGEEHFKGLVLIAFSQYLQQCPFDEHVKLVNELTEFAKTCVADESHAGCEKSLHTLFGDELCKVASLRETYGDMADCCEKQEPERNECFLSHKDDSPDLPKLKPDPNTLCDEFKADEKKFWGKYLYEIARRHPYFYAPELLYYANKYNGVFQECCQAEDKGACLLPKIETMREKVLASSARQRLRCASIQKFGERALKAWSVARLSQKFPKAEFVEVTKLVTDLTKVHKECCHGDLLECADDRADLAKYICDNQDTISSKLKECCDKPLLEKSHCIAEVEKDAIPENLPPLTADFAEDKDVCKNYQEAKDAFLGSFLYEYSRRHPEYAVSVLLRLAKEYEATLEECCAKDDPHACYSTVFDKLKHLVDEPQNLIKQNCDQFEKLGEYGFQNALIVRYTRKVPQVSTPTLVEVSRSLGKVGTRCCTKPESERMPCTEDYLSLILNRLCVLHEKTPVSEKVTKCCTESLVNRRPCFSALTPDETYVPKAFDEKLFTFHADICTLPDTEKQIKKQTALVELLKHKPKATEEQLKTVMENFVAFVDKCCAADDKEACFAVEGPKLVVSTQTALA", "assay": "western blotting"}},
  "data": [
    {"binder": "anti-DENV NS1 monoclonal antibody mAb 33D2 (antibody, V domains shown, also called anti-NS1 mAb 33D2; anti-DENV antibody 33D2) VH: DVQLQESGPGLVKPSQSLSLTCTVTGYSITSDYAWNWIRQFPGNKLEWMGFISYSGSARYNPSLISRTSITRDTSKNQFFLHLNSVTTEDTAIYYCARVERLGYFDVWGAGTTVTVSS VL: DIVLTQSPASLAVSLGQRASISCKASQSVDYDGDSYMHWYQQKPGQPFKLLIYAASNLESGIPARFSGSGSGTVFTLNIHPVEEEDAATYYCQQSNEDPTFGGGTRLEIKR", "values": [
      {"measurement": "binding result", "setting": "[1]", "value": "binds"},
      {"measurement": "binding result", "setting": "[2]", "value": "no binding"}
    ]}
  ]
}
